Test results from a protein production outcome set (Wang et al. 2014).

Experiment: label from the status in PepcDB records

Q: Which protein production does the source give for “MAGSVGEETEPEWIKRVKLEGAVPCLKPDDNCKNGWTTPSPDTFMVRGPKYFSDKVKIPAGDFLLKPLGFDWIKGPKKLSEILSYPSSRIRKVIDEEFQKDGTKPFVWAFNLQLPHKDNYSAVAYFVTTEPILEGSLMDRFLKGDDGFKKSRLKLIANIVKGPWIVRKAVGEQAICVIGRALSCKYVSGENFVEIDVDIGSSMVASAIVHLAFGYVTTLTVDLAFLIESQTEAELPEKLLGAVRFSELQTESATSIELSSSTSNDQWDQTTSERSSWWKSIGNGFSNLLNQDTANMNNTSHGDIQKDEHVQKQ” here?
A: failed

Q: With “MAHEAQKAIARNSLLIRSLPEQHVDALLSQAVWRSYDRGETLFLQEEKAQAIHVVIDGWVKLFRMTPTGSEAVVSVFTRGESFGEAVALRNTPYPVSAEAVTPCEVMHIPSPVFVSLMRRDPEICISILATTFGHLHSLVAQLEQLKAQTGAQRVAEFLLELCDCDTGACEVTLPYDKMLIAGRLGMKPESLSRAFSRLKAAGVTVKRNHAEIEDIALLRDYAESDPADSWSKS” as the sequence, how does the protein production read?
A: not failed

Q: For “MAHGIPSQGKVTITVDEYSSNPTQAFTHYNINQSRFQPPHVHMVDPIPYDTPKPAGHTRFVCISDTHSRTDGIQMPYGDILLHTGDFTELGLPSEVKKFNDWLGNLPYEYKIVIAGNHELTFDKEFMADLVKQDYYRFPSVSKLKPEDFDNVQSLLTNSIYLQDSEVTVKGFRIYGAPWTPWFNGWGFNLPRGQSLLDKWNLIPEGIDILMTHGPPLGFRDWVPKELQRVGCVELLNTVQRRVRPKLHVFGGIHEGYGIMTDGYTTYINASTCTVSFQPTNPPIIFDLPNPQGS”, which protein production is on record?
A: failed

Q: With “MAHGPTRQKITLTTEVAAEPAEVWARIGDFQDMSWHPAVHSSTGENGNEIDATRVLSLGAADGPTISEILYKYSDEKMSYSYRITDVLVEVLPVTNYSSHLTVKARDGGGSVIEWRGAFYRGYPNNDPPEDLEHHHHHH” as the sequence, how does the protein production read?
A: failed

Q: With “MAHHHHHHMRKIYIAGPAVFNPDMGASYYNKVRELLKKENVMPLIPTDNEATGALDIRQKNIQMIKDCDAVIADLSPFRGHEPDCGTAFEVGYAAALNKMVLTFTSDRRNMREKYGSEVDKDNLRVEGFGLPFNLMLYDGVEVFDSFESAFKYFLANFPSK” as the sequence, how does the protein production read?
A: not failed

Q: For “MAHHHHHHSLDAAAATLPRKSGSVDRLVRLAEADMAGVNRLITDRMQSDVAIIPALAEHLIAAGGKRLRPLMTVAAARLAGADNDHFQKLAAAVEFIHTATLLHDDVVDGSQLRRGKVAAHLIWGGAQSVLVGDFLFARAFELMVETNSMKALEILARASRVIAEGEVLQLMRSHDLNLSQAVYLEIIQAKTAELFAAASEAGAVSAGVDVAKSEALRDYGLNLGLAFQLADDALDYGGATETLGKNAGDDFREGKATLPLLLAIARSGPREAEFWERAIGRREQTEADFRRARELIIGSGALDATLDLAADYADKAKAALAMFPANDWREALEELADFAVSRRA”, which protein production is on record?
A: not failed

Q: With “MAHKKGLGSTRNGRDSQAKRLGVKRYEGQVVRAGNILVRQRGTRFKPGKNVGMGRDFTLFALVDGVVEFQDRGRLGRYVHVRPLA” as the sequence, how does the protein production read?
A: not failed

Q: For “MAIAFHTFLLQLLLFFFASFAEANDSRKTYLVQMKVGGHRYGSSSGHQELLGEVLDDDSYKESFTGFSASLTPRERQKLMSKTTTVSSRRREVLEVSRSRNLKLQTTRSWDFMNLTLKAERNPENESDLVVAVIDSGIWPYSELFGSDSPPPPGWENKCENITCNNKIVGARSYYPKKEKYKWVEEKSVIDVTGHGTHVASIVAGRKVEKAGYFGLAEGTMRGGVPNAKIAVYKTCWRVIRKNGREDSVCREDNILKAIDDAIADKVDIISYSQGFQFTPLQKDKVSWAFLRALKNGILTSAAAGNYANNGKFYYTVANGAPWVMTVAASLKDRIFETKLELEGEDKPIIVYDTINTFETQDSFYPLLNEKAPPESTRKRELIAERNGYSILSNYDEKDKGKDVFFEFAQINLLDEAIKEREKGAIVLGGKSYDFNESIKLQFPIASIFLDEQKKGKLWDYYKKDQSKERLAKIHKTEEIPREEGWVPTVAHLSSRGPNCDSFLANILKNSHMNNCFQPDIAAPGLDIIAGWPENVKLSSDRPANDYRHLRFNIMSGTSMACPHATGLALYLKSFKRWSPSAIKSALMTTSSEMTDDDNEFAYGSGHLNATKVRDPGLVYETHYQDYIDYLCKLGYNTEKLRSHVGSDKIDCSKTEIDHDADLNYPTMTARVPLPLDTPFKKVFHRTVTNVNDGEFTYLREINYRGDKDFDEIIVDPPQLKFSELGETKTFTVTVTGISKRNWNKNRAFMTRNTWLTWTEKDGSRQVRSPIVIYSIKGPKACM”, which protein production is on record?
A: failed

Q: With “MAIATARAGGKETGTEQMYILQVTNSRSTMSKMSNVKEVNASTAFSMIKKGALLVDVRETREINRKAFGVSDYLSVPMSRFQSSLHEIPAERKVILACHSGNRSSIASRILVNSGHRKVHNLQHGIISWEREGLPVRKKESPSPLTMLFQMFRKEA” as the sequence, how does the protein production read?
A: failed

Q: Which protein production does the source give for “MAIGRLGYLVRGAWAGGVMLLAAGSAWAAPNWPLAPYSYYAQQQSLSDVLREFAAGFSLALQQGKGVQGVVNGRFNARTPTEFIERLSGIYGFNWFVHAGTLYVSRTSDVVTRAVDAAGASPSALRQALLQLGILDERFGWGELPAQGVAMVSGPPAYVALVEQAVAALPKGAGNQQVAVFRLKHASVSDRVIRYRDQQVVTPGMATMLRQLILGAGPGNDAALAAVAAPLRENPPVFGDAAADGNAPLAGAAQAAGRRLSEPSVQADTRLNALIVQDIPERMPIYRALIEQLDVPSTLIEIEAMIVDVNTDLVNELGVTWGAQIGTTSLGYGDLGLRPGNGLPVDGAAADLAPGTLGISVSTRLAARLRALESDGQANILSQPSILTADNLGAMIDLSDTFYIRTLGERVATVTPVTVGTSLRVTPRYIAAKGGRQVELAIDIEDGRVLQEYPIDGLPRVRKSSISTLAVVGDEQTLLIGGYNNRRDEEQVEKVPLLGDIPGLGFLFSSKSRAVQRRERLFLIRPRVVAIEGKPVFSPVAGTSQVFMSTGWGGHGSSLSIAPGEGGHTQVRHDARAGRPVRLVPDSLHVEYGEAGEASP” here?
A: failed

Q: With “MAILHGSWILNEQESCLFIWGETWRSPQVDFNFAEISLNPLALSALELSEWLQSQHQAIAKLLPQQLEKRTSKAASSVKINLLTHSQIIALPTEISQPRKKETILISPVHSAALASESDSEVYLQTWRVEGFCLPPSAAIKLLTSLPLNITSGENAFLGGDLRFWSQIARWSLDLISRSKFLPIIQRQPNNSVSAKWQVLLDSAVDGTRLEKFAAKMPLVCRTYQEIGSGESPIYIDFPSQPQDLILGFLNSAIDTQLREMVGNQPVVETRLMASLPSAVRQWLQALIAASNSIDADAVGLERLEAALKAWTMPLQYQLASKNQFRTCFELRSPEPDETEWTLAYFLQAADDPEFLVDAATIWQNPVEQLIYQQRTIEEPQETFLRGLGLASRLYPVIAPTLDTESPQFCHLKPMQAYEFIKAVAWRFEDSGLGVILPPSLANREGWANRLGLKISAETPKKKPGRLGLQSLLNFQWHLAIGGQTISKAEFDRLVALKSPLVEINGEWVELRPQDIKTAEAFFTARKDQMALSLEDALRLSSGDTQVIEKLPVVSFEASGALQELIGALTNNQAVAPLPTPKNFQGQLRPYQERGAAWLAFLERWGLGACLADDMGLGKTIQFIAFLLHLKEQDVLEKPTLLVCPTSVLGNWEREVRKFAPTLKVLQYHGDKRPKGKAFQEAVKKHDLVITSYSLIHRDIKSLQGIPWQIIVLDEAQNVKNAEAKQSQAVRQLETTFRIALTGTPVENRLQELWSILDFLNPGYLGNKQFFQRRFAMPIEKYGDAASLNQLRALVQPFILRRLKTDRDIIQDLPDKQEMTVFCGLTGEQAALYQKAVETSLAEIESAEGLQRRGMILALLIKLKQICNHPAQYLKINTLEQHSSGKLQRLEEMLEEVLAESNTYGVAGAGRALIFTQFAEWGKLLKPHLEKQLGREIFFLYGGTSKKQREEMIDRFQHDPQGPPIMILSLKAGGVGLNLTRANHVFHFDRWWNPAVENQATDRVFRIGQTRNVQVHKFVCNGTLEEKIHDMIESKKQLAEQVVGAGEEWLTELDTDQLRNLLILDRSTVIDEEAD” as the sequence, how does the protein production read?
A: failed

Q: Which protein production does the source give for “MAILVTGSTGTIGSQVLAHLQGHNVEVRALTRSPETAQFPAGVTAVRGDLADPDSVRAALRGVSTLFLLAPNVADELTQAMLTLTVAREAGVKGIVYLSVFGGDGYADVPHFAGKYTVERMIEALDLPATILRPAYFIQNDLRQKDGLLKTGVYGSPIGKKGVSMVDIRDIGEAAAIELLRREQAATPLGRETYALVGPDSLTGEGIATIWREALGRAIRHGGDDLVVMEQRTKTMLPAWHALDLRLMFSRYQTEGAVATADDIERLTKLLGHAPRSYTAFARDAAAQWTKG” here?
A: failed

Q: For “MAIQFIVSNKYTAEVSKQLNDSQNWVLDSGIYYEDHNNHIVSSPINSATKPQNTREEWLWIPPHCQVVVCSTSSLKSFLGCKASEDLDRVFGDHPLWLDQLRPLSNLLENSLIDLLSRAPFEQSSKRNIQSMERGNPVMNWNVMQVEEEDTRGEQRVAASSSLSSSFDWNTFLRDRCGLSEEDVAYCFRKLSRFGRVSLSRLNEDSLLRMGINDPTVIAKLLIGITEEFS”, which protein production is on record?
A: failed

Q: With “MAIQKGDFIKLNYTGRFEDGRIFDTTDEELAKKEEIFNPRGLYGGDVVIVGAGHTIEGLDEDLEGKEAGYSSTVTIPPEKAFGLSNSKLVETVSITKFQDRNVHPGLPVELEGKRGVVSRVIGRKVTVDFNSPLAGKTVSYEYTIEKLLEDDVEMIQGLLALYTGMRDMEVEITDGVAKIYVPTGLTFNQRWLMAKNRVVSELFKYAGLKEVQLIEKLTAEAEAPVPAEPEVEAEAEAEAEVEAEVKEETSESHE” as the sequence, how does the protein production read?
A: failed

Q: For “MAISDANRGGAPGAAPGPDPAHILHELAGLMAISPGRDFLDELVNRAVQRLGVDYAWVVLHGAKGEHARTVLSANCRMRWNGAESYLATGQSALAGVLSHATQYVCARDLERHVPGDLALRRLGAQACVAHALRDESGLQRGHVAFVFSEPLADPAIYVSALSACAAFTERAVLALDAERKARQEALQLASRYQALFEKAPVLINAFDARGKCILWNLECERKFGWSMEEVNNHPEPLALFYPDPQTRARVVASVSQAPGRAFEEWHPVTRAGKVLSTLWSNIVLESGTIVNIGLDITERKRAELALTRLATIDSLTDCWNRAEILKILRQEITRLRQHPDQPLAVVMLDLDHFKQLNDLHGHLVGDAALRYFSDQLRSNLRGTDFVGRIGGEEFLALLPGCDGDAALAMADRLRAALRNDPFTTEGQAAPLSVSVGIAFATPEDTAVSDVMRRADTALYEAKRRGRDRAVVYFG”, which protein production is on record?
A: failed

Q: With “MAKAQTVTILSPVNGDVIALNKVKDPVFSAGMMGLGFGVQPSSGEVVAPVSGQVTMVAETKHAIGFTTPDDHLEVLVHLGIDTVDLKGAPFTVKVAAGDDVQAGDVIATMDLAAIQAANRQTTVILAVTNTSDKLESLDVVTGAKAAGDVTATGRLNANTFNAKRQNRLPKAGKYDQLAADIVANVGGVENVSSLIHCITRLRFYLKDESKANDDVVRDLKGVIDVAKAGGQYQVVIGPAVTDVYDAIIKQIGPGFSNDSETAKAVAETAAAAQRPTTPWGKVKWGISNLIGVITGSMIPVIGLLAASGILKGILALLTTFNLVSPTAPTYVIINAMGDSVFYFLPIFVGFTAGKKLGADPVIMGIIGGVLTYPAIVTMASGKATSTLLGMGINANFFGLPVHVASYTYSIFPMIAGAWLASKLEPWLKRVIPTVLRMIFVPLFEVVIVSGAILLFLGPIITVLSTGLANIIVWVYNLSPAISGLIIGGFYQVLVIFGLHWAVIPIVANDIATTGHSYLNAIVSATMVAQGGAVFAIALKSKLANIQELAWPATISAFCGVTEPAMYGINLKYGRAFVTASIGAAVGGFLTGLMNVNMWGFTGSLIGFTSFVNPKGLDFSFYGFLIASAATIVVSFALTWMFGFKDEDANAVKVAPKKRHLGATA” as the sequence, how does the protein production read?
A: failed
